B1: U33 Fab (Fab, V domains shown)
VH: EVQLVQSGGGLVKPGRSLRLSCTASGFTFGDYAMSWVRQAPGKGLEWVGFIRSKAYGGTTEYAAVKGRFTISRDDSKSIAYLQMNSLKTEDTAVYYCIRGANWNWGQGTLVTVSS
VL: EIVLTQSPLSLPVTPGEPASISCRSSQTLMNRNGNNFLDWYLQKPGQSPQLLIYLGSNRAPGVPDRFSGSGSGTDFTLKISRVEAEDVGVYYCMQRIEFPYTFGQGTKLEIKR
notes: Human Fab from a naive B cell phage display library; also called clone U33; Fab U33
B2: U33 IgG (antibody, V domains shown)
VH: EVQLVQSGGGLVKPGRSLRLSCTASGFTFGDYAMSWVRQAPGKGLEWVGFIRSKAYGGTTEYAAVKGRFTISRDDSKSIAYLQMNSLKTEDTAVYYCIRGANWNWGQGTLVTVSS
VL: EIVLTQSPLSLPVTPGEPASISCRSSQTLMNRNGNNFLDWYLQKPGQSPQLLIYLGSNRAPGVPDRFSGSGSGTDFTLKISRVEAEDVGVYYCMQRIEFPYTFGQGTKLEIKR
notes: U33 Fab converted to full length IgG; It was detected with an anti-human Fc secondary; The internalisation study used the 111In-DOTA labelled form; also called full length IgG; 111In-U33 IgG

Assays:
[1] = target: T1, human pro-uPA (zymogen uPA) (human, UniProt P00749 21-431); experiment: quantitative ELISA, uPA-coated plates
T1 construct: mature
Description: (§1) Serial dilutions of pure U33 were added to uPA coated plates and incubated for 1 hour. The amount of Fab bound to uPA was determined by ELISA. U33 Fab was detected only in wells coated with human active uPA. Panel B depicts inhibition of human uPA by U33. The proteolytic activity of human or mouse uPA was read in absence and presence of 1 μM of U33. The enzyme activity is expressed as percentage of the uPA activity in absence of Fab (100%). […] Serial dilutions of U33-Fab were added to uPAR-uPA coated plates and incubated for 1 hour and the activity of uPA was read. Panel D depicts prevention of uPA binding to PAI-1 coated plates by U33. Serial dilutions of pure U33 (4 μM to 31.2 nM) were pre-incubated overnight with uPA and added to PAI-1 coated plates. The amount of uPA bound to PAI was determined by ELISA. […] Serial dilutions of U33 were added to a uPA-coated plate pre-incubated with and without 1 μM CMK. The amount of U33 Fab bound to uPA was determined by ELISA.
(§2) The affinity and specificity of the U33 Fab was determined using quantitative ELISA as well as inhibition assays with human uPA (active and zymogen) and mouse uPA.

[2] = target: T2, mouse uPA (mouse, UniProt P06869 21-433, limits assumed); experiment: quantitative ELISA, uPA-coated plates
T2 construct: The construct is not described; It was active-site titrated in the IgG ELISA, so it was an active form; also called mouse enzyme
T2 sequence (P06869 21-433 limits assumed): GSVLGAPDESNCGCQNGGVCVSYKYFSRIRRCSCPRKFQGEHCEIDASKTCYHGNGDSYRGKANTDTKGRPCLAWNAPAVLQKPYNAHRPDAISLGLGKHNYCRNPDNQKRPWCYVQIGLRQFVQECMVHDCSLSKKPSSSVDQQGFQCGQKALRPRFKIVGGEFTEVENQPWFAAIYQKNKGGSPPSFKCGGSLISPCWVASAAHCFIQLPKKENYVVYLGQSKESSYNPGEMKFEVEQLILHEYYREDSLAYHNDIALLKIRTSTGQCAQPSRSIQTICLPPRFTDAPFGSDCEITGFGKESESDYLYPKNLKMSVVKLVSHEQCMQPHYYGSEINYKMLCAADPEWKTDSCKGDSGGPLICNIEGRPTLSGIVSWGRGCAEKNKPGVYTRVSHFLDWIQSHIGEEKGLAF
Description: as §1, §2

[3] = target: T3, active human urokinase-type plasminogen activator (uPA) (human, UniProt P00749 21-177; P00749 179-431); experiment: steady-state enzyme inhibition of soluble uPA
[4] = target: T4, uPA-PAI-1 complex (human, UniProt P00749 21-177; P00749 179-431; P05121 24-402); experiment: binding of U33 Fab to uPA pre-incubated with PAI-1
[5] = target: T3, active human urokinase-type plasminogen …; experiment: enzyme inhibition of uPA
[6] = target: T1, human pro-uPA (zymogen uPA); experiment: ELISA, plate coated with pro-uPA
Description: (§3) ELISA assays were performed to further assess the selectivity of U33 IgG for uPA compared to highly related serine proteases. All proteases were active site-titrated to ensure that identical concentrations of active protease were adsorbed to the ELISA plate. After blocking, increasing concentrations of U33 IgG were incubated for 1 hour at RT. Unbound U33 IgG was removed by washing and bound U33 IgG was detected with an anti-human Fc-HRP secondary. 50 μL at of 2.8 nM active protease in coating buffer were added to each well in a Nunc Maxisorb ELISA plate and incubated 0/N at 4° C. Unbound protease was removed by hand washing wells 3× with wash buffer. Wells were incubated in 200 μL of Block Solution per well for 2 h at RT. Block Solution was removed by hand washing wells 3× with wash buffer. 50 μL of U33 IgG in Block Solution was added for 1 h at RT. The highest U33 IgG concentration was 651 nM, and was decreased in two-fold increments to 5.1 nM. Unbound U33 IgG was removed by hand washing wells 6× with wash buffer. 50 μL of 1:2000 dilution of secondary antibody in Block Solution was added for 1 h at RT. Unbound secondary antibody was removed by hand washing wells 6× with wash buffer. 100 μL of 1-step Ultra TMB-ELISA was added and then quenched with 100 μL of 1 M HCl. Signal was quantified by measuring A₄₅₀ on plate reader. […]

[7] = target: thrombin (UniProt P00734 328-622); experiment: ELISA, protease-coated plate, anti-human Fc-HRP detection
Description: (§4) ELISA assays were performed to further assess the selectivity of U33 IgG for uPA compared to highly related serine proteases. All proteases were active site-titrated to ensure that identical concentrations of active protease were adsorbed to the ELISA plate. After blocking, increasing concentrations of U33 IgG were incubated for 1 hour at RT. Unbound U33 IgG was removed by washing and bound U33 IgG was detected with an anti-human Fc-HRP secondary. 50 μL at of 2.8 nM active protease in coating buffer were added to each well in a Nunc Maxisorb ELISA plate and incubated 0/N at 4° C. Unbound protease was removed by hand washing wells 3× with wash buffer. Wells were incubated in 200 μL of Block Solution per well for 2 h at RT. Block Solution was removed by hand washing wells 3× with wash buffer. 50 μL of U33 IgG in Block Solution was added for 1 h at RT. The highest U33 IgG concentration was 651 nM, and was decreased in two-fold increments to 5.1 nM. Unbound U33 IgG was removed by hand washing wells 6× with wash buffer. 50 μL of 1:2000 dilution of secondary antibody in Block Solution was added for 1 h at RT. Unbound secondary antibody was removed by hand washing wells 6× with wash buffer. 100 μL of 1-step Ultra TMB-ELISA was added and then quenched with 100 μL of 1 M HCl. Signal was quantified by measuring A₄₅₀ on plate reader. Results for U33 binding to uPA, thrombin, HGFA, hepsin, chymotrypsin and trypsin are shown in FIG. 4, panel A. Results for U33 binding to uPA, MT-SP1 and plasmin are shown in FIG. 4, panel B. Results for U33 binding to uPA and tPA are shown in FIG. 4, panel C. […] Therefore U33 IgG can discriminate between proteases with identical catalytic mechanisms and similar protein folds.

[8] = target: T5, HGFA (UniProt Q04756 373-655, limits assumed); experiment: as above
T5 sequence (looked up): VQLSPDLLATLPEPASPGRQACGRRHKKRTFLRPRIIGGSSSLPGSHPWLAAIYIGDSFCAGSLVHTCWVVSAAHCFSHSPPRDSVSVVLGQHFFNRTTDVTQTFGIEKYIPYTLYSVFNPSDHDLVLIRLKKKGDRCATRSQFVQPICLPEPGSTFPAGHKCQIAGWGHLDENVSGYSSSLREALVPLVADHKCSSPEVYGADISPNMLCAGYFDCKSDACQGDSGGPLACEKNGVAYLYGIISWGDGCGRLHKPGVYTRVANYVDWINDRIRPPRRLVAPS
Description: as §4

[9] = target: hepsin (UniProt P05981 45-417, limits assumed); experiment: as above
Chain of hepsin (P05981 45-417 limits assumed): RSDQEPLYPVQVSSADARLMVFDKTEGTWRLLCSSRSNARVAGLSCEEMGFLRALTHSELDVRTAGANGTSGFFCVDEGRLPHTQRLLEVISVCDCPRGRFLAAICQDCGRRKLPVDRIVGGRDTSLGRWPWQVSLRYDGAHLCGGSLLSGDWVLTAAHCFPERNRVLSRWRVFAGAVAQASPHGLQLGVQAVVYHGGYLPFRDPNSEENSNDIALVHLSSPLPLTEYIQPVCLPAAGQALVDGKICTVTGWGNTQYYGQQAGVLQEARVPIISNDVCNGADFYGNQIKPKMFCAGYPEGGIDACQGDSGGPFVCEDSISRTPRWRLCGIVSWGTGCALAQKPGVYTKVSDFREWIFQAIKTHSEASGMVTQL
Description: as §4

[10] = target: T6, MT-SP1 (UniProt Q9Y5Y6 615-855, limits assumed); experiment: as above
T6 sequence (looked up): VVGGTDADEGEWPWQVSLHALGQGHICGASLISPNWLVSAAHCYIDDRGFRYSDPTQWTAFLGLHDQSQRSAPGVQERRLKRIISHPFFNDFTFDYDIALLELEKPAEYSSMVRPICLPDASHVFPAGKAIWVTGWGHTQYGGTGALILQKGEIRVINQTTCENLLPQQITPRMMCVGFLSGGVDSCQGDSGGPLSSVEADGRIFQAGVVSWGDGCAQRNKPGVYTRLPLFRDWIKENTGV
Description: as §4

[11] = target: plasmin (UniProt P00747 97-810, limits assumed); experiment: as above
Chain of plasmin (P00747 97-810 limits assumed): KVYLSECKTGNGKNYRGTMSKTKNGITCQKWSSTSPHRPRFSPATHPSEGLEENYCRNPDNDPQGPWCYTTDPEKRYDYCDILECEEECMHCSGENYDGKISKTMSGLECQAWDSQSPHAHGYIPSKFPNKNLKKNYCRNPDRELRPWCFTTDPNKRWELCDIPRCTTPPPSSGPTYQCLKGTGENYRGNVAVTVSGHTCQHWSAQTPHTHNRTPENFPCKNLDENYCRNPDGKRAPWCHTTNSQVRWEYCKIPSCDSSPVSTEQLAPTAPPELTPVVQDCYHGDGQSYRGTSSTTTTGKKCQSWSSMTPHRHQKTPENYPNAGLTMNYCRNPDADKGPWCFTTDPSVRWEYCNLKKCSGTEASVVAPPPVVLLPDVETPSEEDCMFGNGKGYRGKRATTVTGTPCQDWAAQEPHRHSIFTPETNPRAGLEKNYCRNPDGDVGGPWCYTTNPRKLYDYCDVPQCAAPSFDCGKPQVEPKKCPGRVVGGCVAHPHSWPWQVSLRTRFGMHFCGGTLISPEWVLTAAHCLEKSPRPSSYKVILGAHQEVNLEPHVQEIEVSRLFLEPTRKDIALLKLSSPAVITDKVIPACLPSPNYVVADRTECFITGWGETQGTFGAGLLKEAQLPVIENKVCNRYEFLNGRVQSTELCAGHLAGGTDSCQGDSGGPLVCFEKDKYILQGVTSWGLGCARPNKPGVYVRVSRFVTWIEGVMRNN
Description: as §4

[12] = target: tPA (UniProt P00750 36-562); experiment: as above
Chain of tPA (P00750 36-562 limits assumed): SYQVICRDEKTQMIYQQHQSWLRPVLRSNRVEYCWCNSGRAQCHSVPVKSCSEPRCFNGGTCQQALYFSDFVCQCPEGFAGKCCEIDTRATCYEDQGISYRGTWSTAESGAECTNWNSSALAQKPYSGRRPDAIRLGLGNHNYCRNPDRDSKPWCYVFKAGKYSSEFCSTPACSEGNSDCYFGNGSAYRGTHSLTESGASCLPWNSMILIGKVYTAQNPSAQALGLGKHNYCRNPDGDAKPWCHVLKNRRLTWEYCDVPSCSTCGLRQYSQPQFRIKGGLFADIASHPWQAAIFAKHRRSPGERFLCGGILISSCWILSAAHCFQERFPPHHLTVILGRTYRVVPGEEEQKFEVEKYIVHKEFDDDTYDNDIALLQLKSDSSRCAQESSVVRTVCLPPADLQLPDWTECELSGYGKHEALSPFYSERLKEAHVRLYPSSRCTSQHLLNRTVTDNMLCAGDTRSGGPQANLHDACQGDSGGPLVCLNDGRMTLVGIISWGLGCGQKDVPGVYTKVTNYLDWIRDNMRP
Description: as §4

[13] = target: T2, mouse uPA; experiment: as above
Description: as §4

[14] = target: T4, uPA-PAI-1 complex; experiment: ELISA, uPA-coated plate pre-treated with PAI-1 (133 nM to 8.3 nM)
Description: as §3

| Binder | binding result [1] | binding result [2] | Ki [3] [nM] | binding result [4] | Ki [5] [nM] | binding result [6] | binding result [7] | binding result [8] | binding result [9] | binding result [10] | binding result [11] | binding result [12] | binding result [13] | binding result [14] |
| --- | --- | --- | --- | --- | --- | --- | --- | --- | --- | --- | --- | --- | --- | --- |
| B1 | no binding | no binding | 20 | no binding |  |  |  |  |  |  |  |  |  |  |
| B2 |  |  |  |  | 10 | no binding (tested: highest U33 IgG concentration 651 nM) | no binding (tested: highest U33 IgG concentration 651 nM) | no binding (tested: highest U33 IgG concentration 651 nM) | no binding (tested: highest U33 IgG concentration 651 nM) | no binding (tested: highest U33 IgG concentration 651 nM) | no binding (tested: highest U33 IgG concentration 651 nM) | no binding (tested: highest U33 IgG concentration 651 nM) | no binding (tested: highest U33 IgG concentration 651 nM) | no binding (tested: highest U33 IgG concentration 651 nM) |
